Experimental findings from patent US20240400715A1 (VIBRANT PHARMA, published 2024) are described below.

For assay [1], the target named is T1, human CD3ε/δ (ACRO systems, CDD-H52W1) (human, UniProt P07766 23-126; P04234 22-105).
T1 construct: bought recombinant heterodimer; also called human CD3 epsilon/delta; Human CD3ε/CD3δ
Description: BLI, antibody captured on AHC sensor, 30 C.

Assay [2] has as its target T2, human CD3ε/δ (ACRO systems, CDD-H52W1) (human, UniProt P07766 23-126; P04234 22-105).
T2 construct: Bought protein; also called human CD3ϵ/CD3δ; human CD3 epsilon/delta antigen
Description: BLI, antibody captured, antigen in solution.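 Also: bispecific antibodies captured on AHIC biosensors to a 1.5 nm loading signal, in PBST with 0.02% detergent.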
Description: The bispecific antibodies were diluted to 5 ag/ml, and 1.5 nm protein was coupled to the surface of the AHIC sensor chip through 0.02% PBST.

Assay [3] has as its target T3, human CD3 on Jurkat cells (human, UniProt P07766 23-207; P04234 22-171; P09693 23-182).
T3 construct: whole, on cells; CD3 complex as on Jurkat (Clone E6-1) cells; also called CD3 expressing cells (Jurkat)
Description: FACS, Jurkat cells.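 Also: flow cytometric binding of bispecific antibodies to Jurkat T cells, threefold serial dilutions incubated half an hour in the cold, EC50 taken from the fitted binding curve.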
Description: The binding of the bispecific antibodies was tested on the CA expressing human lung adenocarcinoma cell line (H1573) and the CD3 expressing immortalized T lymphocyte line (Jurkat). The steps are as follows: the cells were harvested, counted, and resuspended in FACS buffer (PBS containing 0.1% BSA) at 2×10⁶ cells/ml. 100 μl of cell suspension was incubated in a V-bottom 96-well plate at 4° C. with 3-fold serial dilutions of bispecific antibodies (20 μg/ml-0.009 μg/ml) for 30 minutes; washed twice with pre-cooled FACS buffer. […] GraphPadPrism was used to obtain the binding curve.

Assay [4] concerns the target T1, human CD3ε/δ (ACRO systems, CDD-H52W1). Description: serum-stability ELISA, Day 5 vs Day 0.
Description: (§1) The samples to be tested were centrifuged at 4° C. at 12000 rpm for 30 minutes to remove the precipitate. 200 μl of each sample to be tested (0.5 mg/ml) was collected in a 1.5 ml Eppendorf tube. An equal volume of human serum (GEMINI, H2OYOOK) was added, mixed thoroughly, and the mixture was incubated in a 37° C. constant temperature CO₂ incubator. For a total of 10 days, 40 μl samples was aspirated every day and stored at −20° C.
(§2) Enzyme-linked immunosorbent assay (ELISA) was used to test the bispecific antibodies' binding to human CEA and human CD3 epsilon/delta antigen. The steps are as follows: the antigen human CD3ε/δ (ACRO systems, CDD-H52W1) and the recombinant tumor antigen human CEA (CEACAM-5/CD66e, ACRO systems, CE5-H5226) were diluted to 1 μg/ml with PBS, and then added to the 96-well plate at 100 μl per well. The wells were coated overnight at 4° C. After washing 3 times with 0.05% PBST, 200 μl 5% skimmed milk powder was added to each well and incubated at 37° C. for 2 h. After washing 3 times with 0.05% PBST, 100 μl primary antibody sample (10 μg/ml) was added to each well, and incubated at 37° C. for 2 h. After washing 3 times with 0.05% PBST, 100 μl (1:6000) diluted secondary antibody goat anti-human Fc-HRP (sigma, A2170) was added to each well, incubated at room temperature for 1 h. After washing 8 times with 0.05% PBST, 50 μl TMB color developing solution was added to each well, and incubated at room temperature for 10-15 min. 50 μl 1 mM HCl was added to each well to stop the color development. 450 nm Absorbance (OD) was read.
(§3) The binding of antibodies to antigen was calculated according to the following formula: Binding (%)=[(ODdayn−ODb)/(ODday0−ODb)]×100%. ODdayn: experimental well (the protein was stored in the serum for n days); ODday0: control well (the protein was not stored in the serum); ODb: blank well (no primary antibody added).
Assay [5] has the same target. As to the kind of experiment: serum-stability ELISA, Day 2 vs Day 0.
The target is the same in assay [6]. Description: serum-stability ELISA, Day 10 vs Day 0.
Description: as §1, §2, §3
Assay [7] shares this target. As to the kind of experiment: serum-stability ELISA, Day 6 vs Day 0.
Description: as §1, §2, §3
Assay [8] has the same target. As to the kind of experiment: serum-stability ELISA, Day 0 (reference).
Description: as §1, §2, §3
The target is the same in assay [9]. Description: serum-stability ELISA, Day 1 vs Day 0.
For assay [10] the target is unchanged. As to the kind of experiment: serum-stability ELISA, Day 9 vs Day 0.
Description: as §1, §2, §3
Assay [11] shares this target. Description: serum-stability ELISA, Day 7 vs Day 0.
Description: as §1, §2, §3

Where “and” joins values, the source holds several entries; their conditions need not be identical. Equal entries are not always repeated.

B1: HER2-CD3 bispecific antibody 501 (bispecific antibody, human IgG4 S228P, kappa, F234A L235A)
heavy: EVKLLESGGGLVQPKGSLKLSCAASGFTFNTYAMNWVRQAPGKGLEWVARIRSKYNNYATYYADSVKDRFTISRDDSQSILYLQMNNLKTEDTAMYYCVRHGNFGNSYVSWFAYWGQGTLVTVSSASTKGPSVFPLAPCSRSTSESTAALGCLVKDYFPEPVTVSWNSGALTSGVHTFPAVLQSSGLYSLSSVVTVPSSSLGTKTYTCNVDHKPSNTKVDKRVESKYGPPCPPCPAPEAAGGPSVFLFPPKPKDTLMISRTPEVTCVVVDVSQEDPEVQFNWYVDGVEVHNAKTKPREEQFNSTYRVVSVLTVLHQDWLNGKEYKCKVSNKGLPSSIEKTISKAKGQPREPQVYTLPPCQEEMTKNQVSLWCLVKGFYPSDIAVEWESNGQPENNYKTTPPVLDSDGSFFLYSRLTVDKSRWQEGNVFSCSVMHEALHNHYTQKSLSLSL
chain: QVQLVQSGGGLVQAGGSLRLSCAASGRTFSSYAMAWFRQAPGKEREFVAAISWSGANIYVADSVKGRFTISRDNAKDTVYLQMNSLKPEDTAVYYCAVKLGFAPVEERQYDYWGQGTQVTVSSESKYGPPCPPCPAPEAAGGPSVFLFPPKPKDTLMISRTPEVTCVVVDVSQEDPEVQFNWYVDGVEVHNAKTKPREEQFNSTYRVVSVLTVLHQDWLNGKEYKCKVSNKGLPSSIEKTISKAKGQPREPQVCTLPPSQEEMTKNQVSLSCAVKGFYPSDIAVEWESNGQPENNYKTTPPVLDSDGSFFLVSRLTVDKSRWQEGNVFSCSVMHEALHNRFTQKSLSLSL
light: QAVVTQESALTTSPGETVTLTCRSSTGAVTTSNYANWVQEKPDHLFTGLIGGTNKRAPGVPARFSGSLIGDKAALTITGAQTEDEAIYFCALWYSNLWVFGGGTKVEIKRTVAAPSVFIFPPSDEQLKSGTASVVCLLNNFYPREAKVQWKVDNALQSGNSQESVTEQDSKDSTYSLSSTLTLSKADYEKHKVYACEVTHQGLSSPVTKSFNRGEC
notes: VHH-hole chain assembled from VHH and hole-Fc with hinge
In [1], B1 displayed a Kd of 3.14 nM, a koff of 0.000508 s⁻¹ and a kon of 162000 M⁻¹ s⁻¹.

B2: Knob+Fab-Hole-CEA (106) (bispecific antibody, human IgG4 S228P, kappa, F234A L235A)
chain: ESKYGPPCPPCPAPEAAGGPSVFLFPPKPKDTLMISRTPEVTCVVVDVSQEDPEVQFNWYVDGVEVHNAKTKPREEQFNSTYRVVSVLTVLHQDWLNGKEYKCKVSNKGLPSSIEKTISKAKGQPREPQVYTLPPCQEEMTKNQVSLWCLVKGFYPSDIAVEWESNGQPENNYKTTPPVLDSDGSFFLYSRLTVDKSRWQEGNVFSCSVMHEALHNHYTQKSLSLSL
heavy: EVKLLESGGGLVQPKGSLKLSCAASGFTFNTYAMNWVRQAPGKGLEWVARIRSKYNNYATYYADSVKDRFTISRDDSQSILYLQMNNLKTEDTAMYYCVRHGNFGNSYVSWFAYWGQGTLVTVSSASTKGPSVFPLAPCSRSTSESTAALGCLVKDYFPEPVTVSWNSGALTSGVHTFPAVLQSSGLYSLSSVVTVPSSSLGTKTYTCNVDHKPSNTKVDKRVESKYGPPCPPCPAPEAAGGPSVFLFPPKPKDTLMISRTPEVTCVVVDVSQEDPEVQFNWYVDGVEVHNAKTKPREEQFNSTYRVVSVLTVLHQDWLNGKEYKCKVSNKGLPSSIEKTISKAKGQPREPQVCTLPPSQEEMTKNQVSLSCAVKGFYPSDIAVEWESNGQPENNYKTTPPVLDSDGSFFLVSRLTVDKSRWQEGNVFSCSVMHEALHNRFTQKSLSLSLGGGGSGGGGSEVQLVESGGGFVQAGESLTLSCTSSTLTFTPYRMAWYRQAPGKQRDLVADISSGDGRTTNYADFAKGRFTISRDNIKNTVFLRMTNLKPEDTAVYYCNTFVSFVGIARSWGQGTQVTVSS
light: QAVVTQESALTTSPGETVTLTCRSSTGAVTTSNYANWVQEKPDHLFTGLIGGTNKRAPGVPARFSGSLIGDKAALTITGAQTEDEAIYFCALWYSNLWVFGGGTKVEIKRTVAAPSVFIFPPSDEQLKSGTASVVCLLNNFYPREAKVQWKVDNALQSGNSQESVTEQDSKDSTYSLSSTLTLSKADYEKHKVYACEVTHQGLSSPVTKSFNRGEC
notes: Anti-CD3 TA1 Fab + anti-CEA VHH C17 on human IgG4 knob-into-hole Fc
With B2, in assay [2], the affinity, expressed as Kd, was 0.589 nM; the koff came out at 0.000215 s⁻¹; the kon is 366000 M⁻¹ s⁻¹. For the same molecule, the EC50 in [3] is 0.69 µg/mL and 5.31 nM.

B3: HER2-CD3 bispecific antibody 504 (bispecific antibody, human IgG4 S228P, kappa, F234A L235A)
chain: QVQLVQSGGGLVQAGGSLRLSCAASGRTFSSYAMAWFRQAPGKEREFVAAISWSGANIYVADSVKGRFTISRDNAKDTVYLQMNSLKPEDTAVYYCAVKLGFAPVEERQYDYWGQGTQVTVSSESKYGPPCPPCPAPEAAGGPSVFLFPPKPKDTLMISRTPEVTCVVVDVSQEDPEVQFNWYVDGVEVHNAKTKPREEQFNSTYRVVSVLTVLHQDWLNGKEYKCKVSNKGLPSSIEKTISKAKGQPREPQVYTLPPCQEEMTKNQVSLWCLVKGFYPSDIAVEWESNGQPENNYKTTPPVLDSDGSFFLYSRLTVDKSRWQEGNVFSCSVMHEALHNHYTQKSLSLSL
heavy: EVKLLESGGGLVQPKGSLKLSCAASGFTFNTYAMNWVRQAPGKGLEWVARIRSKYNNYATYYADSVKDRFTISRDDSQSILYLQMNNLKTEDTAMYYCVRHGNFGNSYVSWFAYWGQGTLVTVSSASTKGPSVFPLAPCSRSTSESTAALGCLVKDYFPEPVTVSWNSGALTSGVHTFPAVLQSSGLYSLSSVVTVPSSSLGTKTYTCNVDHKPSNTKVDKRVESKYGPPCPPCPAPEAAGGPSVFLFPPKPKDTLMISRTPEVTCVVVDVSQEDPEVQFNWYVDGVEVHNAKTKPREEQFNSTYRVVSVLTVLHQDWLNGKEYKCKVSNKGLPSSIEKTISKAKGQPREPQVCTLPPSQEEMTKNQVSLSCAVKGFYPSDIAVEWESNGQPENNYKTTPPVLDSDGSFFLVSRLTVDKSRWQEGNVFSCSVMHEALHNRFTQKSLSLSL
light: QAVVTQESALTTSPGETVTLTCRSSTGAVTTSNYANWVQEKPDHLFTGLIGGTNKRAPGVPARFSGSLIGDKAALTITGAQTEDEAIYFCALWYSNLWVFGGGTKVEIKRTVAAPSVFIFPPSDEQLKSGTASVVCLLNNFYPREAKVQWKVDNALQSGNSQESVTEQDSKDSTYSLSSTLTLSKADYEKHKVYACEVTHQGLSSPVTKSFNRGEC
notes: VHH-knob chain assembled from VHH and knob-Fc with hinge
In [1], B3 showed a Kd of 2.79 nM, a koff of 0.0005 s⁻¹ and a kon of 179000 M⁻¹ s⁻¹.

B4: 101 (Fab-Knob+CEA-Hole) (bispecific antibody, human IgG4 S228P, kappa, F234A L235A)
heavy: EVKLLESGGGLVQPKGSLKLSCAASGFTFNTYAMNWVRQAPGKGLEWVARIRSKYNNYATYYADSVKDRFTISRDDSQSILYLQMNNLKTEDTAMYYCVRHGNFGNSYVSWFAYWGQGTLVTVSSASTKGPSVFPLAPCSRSTSESTAALGCLVKDYFPEPVTVSWNSGALTSGVHTFPAVLQSSGLYSLSSVVTVPSSSLGTKTYTCNVDHKPSNTKVDKRVESKYGPPCPPCPAPEAAGGPSVFLFPPKPKDTLMISRTPEVTCVVVDVSQEDPEVQFNWYVDGVEVHNAKTKPREEQFNSTYRVVSVLTVLHQDWLNGKEYKCKVSNKGLPSSIEKTISKAKGQPREPQVYTLPPCQEEMTKNQVSLWCLVKGFYPSDIAVEWESNGQPENNYKTTPPVLDSDGSFFLYSRLTVDKSRWQEGNVFSCSVMHEALHNHYTQKSLSLSL
chain: EVQLVESGGGFVQAGESLTLSCTSSTLTFTPYRMAWYRQAPGKQRDLVADISSGDGRTTNYADFAKGRFTISRDNIKNTVFLRMTNLKPEDTAVYYCNTFVSFVGIARSWGQGTQVTVSSESKYGPPCPPCPAPEAAGGPSVFLFPPKPKDTLMISRTPEVTCVVVDVSQEDPEVQFNWYVDGVEVHNAKTKPREEQFNSTYRVVSVLTVLHQDWLNGKEYKCKVSNKGLPSSIEKTISKAKGQPREPQVCTLPPSQEEMTKNQVSLSCAVKGFYPSDIAVEWESNGQPENNYKTTPPVLDSDGSFFLVSRLTVDKSRWQEGNVFSCSVMHEALHNRFTQKSLSLSL
light: QAVVTQESALTTSPGETVTLTCRSSTGAVTTSNYANWVQEKPDHLFTGLIGGTNKRAPGVPARFSGSLIGDKAALTITGAQTEDEAIYFCALWYSNLWVFGGGTKVEIKRTVAAPSVFIFPPSDEQLKSGTASVVCLLNNFYPREAKVQWKVDNALQSGNSQESVTEQDSKDSTYSLSSTLTLSKADYEKHKVYACEVTHQGLSSPVTKSFNRGEC
notes: TA1 anti-CD3 Fab, C17 anti-CEA VHH, human IgG4 Fc knob-into-hole
Regarding B4, the Binding % in assay [4] was 99.2%; in [5], 101%; in [6] it was 101%; in assay [7] it was 103%; in assay [8], 100%; in [9], 98.5%. Also, the values for the Binding % in assay [10] and in [11] were 102% and 100%, respectively.
